According to article PMC7286819, “SIRT7 activates p53 by enhancing PCAF-mediated MDM2 degradation to arrest the cell cycle” (Oncogene, 2020):

Target: T1, Full-length His-PCAF fusion protein (UniProt Q92831 1-832)
T1 construct: PCAF, full length, cDNA cloned into pET-28a; source: E. coli, purified
Test: pull-down; GST or GST-SIRT7 on glutathione-Sepharose 4B beads incubated with 6xHis-tagged PCAF from E. coli at 4 C overnight; washed with TEN buffer (0.5% NP-40, 20 mM Tris pH 7.4, 0.1 mM EDTA, 300 mM NaCl); immunoblot
Conditions: both partners purified

T1 sequence (Q92831 whole entry, the tested form may be a part): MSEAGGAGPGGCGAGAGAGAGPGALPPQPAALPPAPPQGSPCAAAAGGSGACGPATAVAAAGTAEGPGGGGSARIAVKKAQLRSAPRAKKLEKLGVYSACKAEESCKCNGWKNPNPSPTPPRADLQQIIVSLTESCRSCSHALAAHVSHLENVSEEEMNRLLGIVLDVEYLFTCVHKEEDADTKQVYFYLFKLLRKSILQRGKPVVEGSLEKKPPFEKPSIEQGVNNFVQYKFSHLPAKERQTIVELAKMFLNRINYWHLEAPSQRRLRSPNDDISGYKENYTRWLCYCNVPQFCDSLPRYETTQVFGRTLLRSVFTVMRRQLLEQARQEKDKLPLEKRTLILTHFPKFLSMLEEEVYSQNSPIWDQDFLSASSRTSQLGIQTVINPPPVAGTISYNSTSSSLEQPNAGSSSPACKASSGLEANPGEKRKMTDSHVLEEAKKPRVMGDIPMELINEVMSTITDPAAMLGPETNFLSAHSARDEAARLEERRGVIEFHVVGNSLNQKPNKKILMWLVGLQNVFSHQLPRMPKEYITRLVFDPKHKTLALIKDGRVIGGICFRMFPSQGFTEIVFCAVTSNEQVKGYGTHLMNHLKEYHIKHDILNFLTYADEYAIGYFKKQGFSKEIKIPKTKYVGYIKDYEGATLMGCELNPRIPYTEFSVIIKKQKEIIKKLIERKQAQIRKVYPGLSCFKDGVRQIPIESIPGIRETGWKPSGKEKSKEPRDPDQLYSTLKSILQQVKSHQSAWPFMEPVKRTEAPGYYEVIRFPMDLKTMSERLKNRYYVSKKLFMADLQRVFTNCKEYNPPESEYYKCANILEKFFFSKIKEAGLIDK

B1: full-length GST-tagged SIRT7 (natural protein, UniProt Q9NRC8 1-400, looked up)
chain: MAAGGLSRSERKAAERVRRLREEQQRERLRQVSRILRKAAAERSAEEGRLLAESADLVTELQGRSRRREGLKRRQEEVCDDPEELRGKVRELASAVRNAKYLVVYTGAGISTAASIPDYRGPNGVWTLLQKGRSVSAADLSEAEPTLTHMSITRLHEQKLVQHVVSQNCDGLHLRSGLPRTAISELHGNMYIEVCTSCVPNREYVRVFDVTERTALHRHQTGRTCHKCGTQLRDTIVHFGERGTLGQPLNWEAATEAASRADTILCLGSSLKVLKKYPRLWCMTKPPSRRPKLYIVNLQWTPKDDWAALKLHGKCDDVMRLLMAELGLEIPAYSRWQDPIFSLATPLRAGEEGSHSRKSLCRSREEAPPGDRGAPLSSAPILGGWFGRGCTKRTKRKKVT
notes: SIRT7, full length, cDNA cloned into pGEX-4T1; also called GST-SIRT7; full-length (FL) SIRT7; source: E. coli, purified on glutathione-Sepharose 4B beads
binding result: binds
